Changes are numbered by the printed parent chain. Names and notes keep the numbering of the source.
T1: AtMKK5-KD (Arabidopsis thaliana, UniProt Q8RXG3)
T1 construct: gene MKK5; kinase domain, residues 62-335, N-terminal His6-tag, pET28b, E. coli BL21(DE3); phosphorylated at Ser66, Thr83, Thr108, Thr215, Ser221
T1 sequence (Q8RXG3 62-335): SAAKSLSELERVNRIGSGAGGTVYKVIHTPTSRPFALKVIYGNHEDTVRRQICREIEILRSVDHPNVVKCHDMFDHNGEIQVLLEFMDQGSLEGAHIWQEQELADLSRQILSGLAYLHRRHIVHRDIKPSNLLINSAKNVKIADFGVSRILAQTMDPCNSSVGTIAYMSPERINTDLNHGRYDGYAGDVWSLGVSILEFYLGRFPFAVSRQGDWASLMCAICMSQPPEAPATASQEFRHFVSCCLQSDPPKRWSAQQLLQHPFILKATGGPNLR

B1: AtMKK5 RRKR4A (full length; Arg17, Arg19, Lys20 and Arg21 all replaced by Ala) (enzyme)
chain: MKPIQSPSGVASPMKNALAAAPDLSLPLPHRDVALAVPLPLPPPSSSSSAPASSSAISTNISAAKSLSELERVNRIGSGAGGTVYKVIHTPTSRPFALKVIYGNHEDTVRRQICREIEILRSVDHPNVVKCHDMFDHNGEIQVLLEFMDQGSLEGAHIWQEQELADLSRQILSGLAYLHRRHIVHRDIKPSNLLINSAKNVKIADFGVSRILAQTMDPCNSSVGTIAYMSPERINTDLNHGRYDGYAGDVWSLGVSILEFYLGRFPFAVSRQGDWASLMCAICMSQPPEAPATASQEFRHFVSCCLQSDPPKRWSAQQLLQHPFILKATGGPNLRQMLPPPRPLPSAS
modifications: phosphorylated at Ser/Thr residues (signals similar to the wild type; sites not stated)
B2: AtMKK5 LLL3A (full length; Leu24, Leu26 and Leu28 all replaced by Ala) (enzyme)
chain: B1 chain with A17R, A19R, A20K, A21R, L24A, L26A, L28A
modifications: phosphorylated at Ser/Thr residues (signals similar to the wild type; sites not stated)
B3: AtMKK5 R19A (full length) (enzyme)
chain: B1 chain with A17R, A20K, A21R
modifications: phosphorylated at Ser/Thr residues (signals similar to the wild type; sites not stated)
B4: AtMKK5 K20A (full length) (enzyme)
chain: B1 chain with A17R, A19R, A21R
modifications: phosphorylated at Ser/Thr residues (signals similar to the wild type; sites not stated)
B5: AtMKK5 R21A (full length) (enzyme)
chain: B1 chain with A17R, A19R, A20K
modifications: phosphorylated at Ser/Thr residues (signals similar to the wild type; sites not stated)
B6: AtMKK5 L24A (full length) (enzyme)
chain: B1 chain with A17R, A19R, A20K, A21R, L24A
modifications: phosphorylated at Ser/Thr residues (signals similar to the wild type; sites not stated)
B7: AtMKK5 L26A (full length) (enzyme)
chain: B1 chain with A17R, A19R, A20K, A21R, L26A
modifications: phosphorylated at Ser/Thr residues (signals similar to the wild type; sites not stated)
B8: AtMKK5 L28A (full length) (enzyme)
chain: B1 chain with A17R, A19R, A20K, A21R, L28A
modifications: phosphorylated at Ser/Thr residues (signals similar to the wild type; sites not stated)
B9: AtMKK5 (full-length, phosphorylated; p-AtMKK5) (Arabidopsis thaliana) (protein)
chain: B1 chain with A17R, A19R, A20K, A21R
notes: full-length (348 residues), N-terminal His6-tag, pET28b, E. coli BL21(DE3); phosphorylated at Ser/Thr as purified

Tests used:
AtMKK5-KD = target: T1, AtMKK5-KD; assay: PK/LDH-coupled NADH oxidation at […] nm (ATPase); format: biochemical; conditions: 1 mM ATP, 20 nM phosphorylated kinase domain; 10 mM MgCl2, pH 7.0, 25 °C
[1] = target: AtMPK6(K92M) (Arabidopsis thaliana) (UniProt Q39026)
Sequence of AtMPK6(K92M) (Arabidopsis thaliana) (Q39026 whole entry K92M): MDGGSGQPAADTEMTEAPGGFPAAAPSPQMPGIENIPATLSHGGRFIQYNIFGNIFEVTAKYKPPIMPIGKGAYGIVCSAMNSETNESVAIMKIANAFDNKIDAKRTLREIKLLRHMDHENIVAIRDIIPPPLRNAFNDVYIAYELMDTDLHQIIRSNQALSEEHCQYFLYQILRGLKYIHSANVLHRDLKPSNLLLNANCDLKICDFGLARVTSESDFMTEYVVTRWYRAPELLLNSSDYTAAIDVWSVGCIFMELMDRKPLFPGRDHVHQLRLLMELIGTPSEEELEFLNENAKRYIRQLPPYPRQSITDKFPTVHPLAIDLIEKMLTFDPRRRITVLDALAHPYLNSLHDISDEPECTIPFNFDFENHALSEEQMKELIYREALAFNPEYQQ

purified protein = substrate: Nc1ncnc2c1ncn2[C@@H]1O[C@H](COP(=O)(O)OP(=O)(O)OP(=O)(O)O)[C@@H](O)[C@H]1O; assay: purified protein; format: biochemical, Arabidopsis thaliana; conditions: no protein substrate, 10 mM MgCl2, 50 mM MOPS pH 7.0, 100 mM NaCl, 25 °C, phosphorylated enzyme 20 nM

Molecule	decrease of AtMPK6(K92M) phosphorylation activity against wild-type AtMKK5, coupled spectrophotometric assay (20 nM AtMKK5, 1 mM ATP, 1 μM AtMPK6(K92M)) (fold decrease) [1]	further results
Nc1ncnc2c1ncn2[C@@H]1O[C@H](COP(=O)(O)OP(=O)(O)OP(=O)(O)O)[C@@H](O)[C@H]1O [ATP]	–	PK/LDH-coupled NADH oxidation at 340 nm (ATPase) (AtMKK5-KD): examined their effects on the catalytic function of AtMKK5-KD
B1	25	–
B2	–	drop of the initial velocity of AtMPK6(K92M) phosphorylation against wild-type AtMKK5, coupled spectrophotometric assay (20 nM AtMKK5, 1 mM ATP, 1 μM AtMPK6(K92M)) (fold decrease) [1]: 90
B3	3	–
B4	3	–
B5	3	–
B6	10	–
B7	10	–
B8	10	–
B9	–	Km (purified protein): 96.2 ± 3.5 µM; kcat (purified protein): 1.96 ± 0.02 s⁻¹

— PMC9909325, “Crystal structure of the phosphorylated Arabidopsis MKK5 reveals activation mechanism of MAPK kinases” (Acta Biochimica et Biophysica Sinica, 2022)
